In PMC4154877, “Mouse, but Not Human, ApoB-100 Lipoprotein Cholesterol Is a Potent Innate Inhibitor of Streptococcus pneumoniae Pneumolysin” (PLoS Pathogens, 2014):
Where a chain is given by its changes, count along the chain named. Names may count otherwise.

How the values were obtained:
FRET or BRET = molecular target: the molecule itself; assay: FRET or BRET
[1] = molecular target: the molecule itself; assay: SDS-agarose gel electrophoresis of SDS-resistant oligomer, immunoblot; PLY^PPL incubated with mouse or human serum diluted 1:2 to 1:40 in HEPES buffered saline, 37°C, 20 minutes; SDS-AGE (1.5%), blot probed with rabbit anti-PLY serum

B1: pre-pore locked pneumolysin with Cys-117, labelled with Alexa Fluor 488 or 568 (PLY^PPL D117C) (natural protein, Streptococcus pneumoniae, UniProt P0C2J9 1-471, looked up)
chain: MANKAVNDFILAMNYDKKKLLTHQCESIENRFIKEGNQLPDEFVVIERKKRSLSTNTSDISVTATNDSRLYPGALLVVDETLLENNPTLLAVDRAPMTYSIDLPGLASSDSFLQVECPSNSSVRGAVNDLLAKWHQDYGQVNNVPARMQYEKITAHSMCQLKVKFGSDFEKTGNSLDIDFNSVHSGEKQIQIVNFKQIYYTVSVDAVKNPGDVFQDTVTVEDLKQRGISAERPLVYISSVAYGRQVYLKLETTSKSDEVEAAFEALIKGVKVAPQTEWKQILDNTEVKAVILGGDPSSGARVVTGKVDMVEDLIQEGSRFTADHPGLPISYTTSFLRDNVVATFQNSTDYVETKVTAYRNGDLLLDHSGAYVAQYYITWNELSYDHQGKEVLTPKAWDRNGQDLTAHFTTSIPLKGNVRNLSVKIREATGLAWEWWRTVYEKTDLPLVRKRTISIWGTTLYPQVEDKVEND
modifications: Alexa Fluor 488 (donor) or Alexa Fluor 568 (acceptor) on the sulfhydryl of Cys-117; disulfide between cysteine-substituted Gly-25 and Glu-159
notes: Donor-labelled protein was mixed with acceptor-labelled or unlabelled (U) protein in the FRET assay; also called D labeled PLY^PPL; A labeled PLY^PPL; source: E. coli Tuner cells, purified
FRET or BRET
  binding result: binds

B2: pre-pore locked pneumolysin (PLY^PPL) (natural protein)
chain: B1 chain with C117D
modifications: disulfide between cysteine-substituted Gly-25 and Glu-159
notes: pneumolysin (PLY) of Streptococcus pneumoniae, codon-optimised gene in pET-15b (NdeI/BamHI); cysteine-less background (Cys-428 to Ala) with a disulfide between Cys-25 and Cys-159; also called prepore locked version of PLY; source: E. coli Tuner cells, purified
[1]
  binding result: binds
